Experimental data as given in the supplement of paper PMC9170038.

System: MS2 coat protein
Assay: apparent KD of MS2 coat protein; designed switch direction (-1 OFF switch, 1 ON switch): -1; higher = weaker reporter binding
Outline: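 On Illumina chips, designed RNA switches with common flanks were made by stalled E. coli RNA polymerase. Titrations with SNAP-549-labelled MS2 coat protein, doubling from 0.7 or 1.5 nM to 3 µM, were done with no input, with 200 uM small-molecule ligand, or with an oligonucleotide input. Apparent KD is the median per design over clusters, from curve fits of normalised cluster fluorescence.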

[1] = Eterna round: R95, input ligand: FMN 200 uM
[2] = Eterna round: R95, input ligand: microRNA oligo, concentration not stated
[3] = Eterna round: R95, input ligand: none
[4] = input ligand: microRNA oligo, concentration not stated

| Sequence | apparent KD of MS2 coat protein [1] [nM] | apparent KD of MS2 coat protein [2] [nM] | apparent KD of MS2 coat protein [3] [nM] | apparent KD of MS2 coat protein (input ligand: FMN 200 uM) [nM] | apparent KD of MS2 coat protein (input ligand: none) [nM] | apparent KD of MS2 coat protein [4] [nM] |
| --- | --- | --- | --- | --- | --- | --- |
| AUUAUUUAAGUCAGGAUAUCGUAUUUAAUUAAAUACGAGAAGGGACAUGAGGAUCACCCAUGUAAUAAAUUUUA [JMFs Solution 1] (puzzle: Brourd's mod of Exclusion 4) | 24.1 | 14.2 | 15.9 |  |  |  |
| AUUAUUUCAGGAUAUGCCUUCAAAGACAUGAGGAUCACCCAUGUUUUCAGUGGCAGGAUCGCAGAAGGGAGAUAUU [EX5 C.29] (Eterna round: R97, puzzle: Exclusion 5) |  |  |  | 15.6 | 14.4 |  |
| AUUGGACACUCAGGAUAUCAGGUUCUAUACAUGAGGAUCACCCAUGUGGGCGAACCCAUGAUAGCUGAGAAGGGAGUAAUCCUA [Orxete] (Eterna round: R96, puzzle: Exclusion NG 2) |  |  |  | 39 | 19.4 | 11.9 |
| AUUGUAUGGGAAGGAUAUAGAAUAUUAUUUUAACAUGAGGAUCACCCAUGUAACCUUAUGUGUAGCUAGAAGGUCCGUUUGUUA [Title] (Eterna round: R96, puzzle: Exclusion NG 2) |  |  |  |  |  | 269 |
| AUUGUGUGAGGAUAUUAAUAGUAAAUGAAUAGAAUUAUGAUUGAGAAGGCACAUGAGGAUCACCCAUGUUCCUU [JR_Ex4_Sub081] (Eterna round: R97, puzzle: Exclusion 4) |  |  |  | 17.8 | 19.6 |  |
| AUUGUGUUAGGAUAUGCUUAUGGUGGGUAGUCCAGUAUGAAGUAGAAGGGACAUGAGGAUCACCCAUGUGCUGA [EX4 #36] (Eterna round: R97, puzzle: Exclusion 4) |  |  |  | 136 | 164 |  |
| AUUUAAUUUAAUAAGAUCACAUGAGGAUCACCCAUGUUAUAAUAGGAUAUCAGCUCGUUUAGAGCUGAGAAGGAUUAUAACAUG [ExNG3/9-A2] (Eterna round: R96, puzzle: Exclusion NG 3) |  |  |  | 31.8 | 7.21 | 20.8 |
| AUUUAAUUUAGCGAGAUCACAUGAGGAUCACCCAUGUAUAUAUAGGAUAUCAGCUCGAAUAGAGCUGAGAAGGAUAUAUACCGC [ExNG3/7-A4] (Eterna round: R96, puzzle: Exclusion NG 3) |  |  |  |  |  | 76.7 |
| AUUUAGAGAGGAUAUAUAAUGUGAAACAUGAGGAUCACCCAUGUAAUAUUAUGGAUGUAAAUAGAAGGCUCAUUUA [Mat - Exclusion 5 - JL mod - D5] (puzzle: Exclusion 5) |  | 30.2 |  |  |  |  |
| AUUUAGCAAGUUAGAUCCUACAUGAGGAUCACCCAUGUUGUUCGUCUCAUUUGAAGACAACACAAAAGUGUUGUCUU [Omei Mir OFFv1 B4] (Eterna round: R97, puzzle: Sensor, turn-off variant 1) |  |  |  | 112 | 126 |  |
| AUUUAGCGAGGAUAUACCAACGUGAUCUUCGACUGAGCGGCACUUGAGGAUCACCCAAGUAGAAGGCGCACUAU [Onleindian] (Eterna round: R97, puzzle: Exclusion 2) |  |  |  | 346 | 207 |  |
| AUUUGCACGCUGCGGUCCUACAUGAGGAUCACCCAUGUGGUCUGGUGGCGUGGGUCGCCGGACUUGGCUCGUCUUGU [salish99_S_TOV1_R5_033] (Eterna round: R97, puzzle: Sensor, turn-off variant 1) |  |  |  | 18.7 | 19.5 |  |
| AUUUUAUAUGAAGGAUAUACUUAACAUGAGGAUCACCCAUGUGGUGUUGUGAGUGAGUGAGUUUAGUAGAAGGUCAAUUAUUUU [JMF's solution 32] (Eterna round: R96, puzzle: Exclusion NG 2) |  |  |  | 781 | 257 | 167 |
| AUUUUGUCAGGAUAUGAGUAGUAGGAUGAGAGUGCUACUACUUAGAAGGGACAUGAGGAUCACCCAUGUCUUCC [Bring Us a Shrubbery-06] (puzzle: Exclusion 4) |  | 13.8 |  |  |  |  |
| AUUUUGUGAGGAUAUGUGGCUUCGAUCGUAAAAACGAGGCUACAGAAGGCACAUGAGGAUCACCCAUGUUCCUA [salish99_ex4_r4_119] (Eterna round: R97, puzzle: Exclusion 4) |  |  |  | 194 | 24 |  |
| CAAAACCUAGGAUAUACAUGAGGAUCACCCAUGUCGGGCCUACGCGAAACGCGCCUCAGUAGAAGGAGGGAAAC [Riri] (puzzle: Exclusion 3) | 180 | 46.8 | 70.5 |  |  |  |
| CAAAAGGUAGGAUAUACGAAAAAAAAGGGUAGAAAAAAAACACAUGAGGAUCACCCAUGUAGAAGGACCAAAAG [salish99_ex2_r3_053] (puzzle: Exclusion 2) | 71.2 | 24.9 | 22.2 |  |  |  |
| CAAGAAAAGAAAGGAUAUAGCGCGGAGCCGCAGCUAGAAGGUUCGGUGGGUAUCCUGUAACAUGAGGAUCACCCAUGUAAAGAG [Texelara] (Eterna round: R96, puzzle: Exclusion NG 1) |  |  |  | 499 | 527 | 109 |
| CAAUAUUACUGAGGAUAUCCUAUUGUAUUUCAGGGAGAAGGCAGACUCAACAUGAGGAUCACCCAUGUAAGACGGGUACUAGAU [Ex NG1 #18] (Eterna round: R96, puzzle: Exclusion NG 1) |  |  |  | 97 | 98.2 | 77.4 |
| CACAAGCUUUUUUGUUGCUUUUUAGUUGGUGUAUGAUAAACAUGAGGAUCACCCAUGUAAUAGAUGCUCGAUCUUUU [JR_SV3TOV2_Sub083] (puzzle: Sensor v3, turn-off variant 2) | 24.5 | 21.7 | 27 |  |  |  |
| CACCGUUACAGAGGAUAUGGUACAUGAGGAUCACCCAUGUAAUAAAUGAGAAUUUCGAAUGUAAUCCAGAAGGCUGGAAUCGGC [Ostricism 74 - Jieux - Exclusion NG 2] (Eterna round: R96, puzzle: Exclusion NG 2) |  |  |  | 228 | 96.3 | 85.2 |
| CACCGUUACCGAGGAUAUCGUACAUGAGGAUCACCCAUGUAAUAAAUGAGAAUUUCGGAUGUAUGCGAGAAGGCGGGAAUCGGC [Ostracism 35 - Jieux - Exclusion NG 2] (Eterna round: R96, puzzle: Exclusion NG 2) |  |  |  |  |  | 24.8 |
| CACCGUUAGCGAGGAUAUCGUACAUGAGGAUCACCCAUGUAAUAAAUGAGAAUUUCGGAUGUAUGCGAGAAGGCGCGAAUCGGC [Ostracism 34 - Jieux - Exclusion NG 2] (Eterna round: R96, puzzle: Exclusion NG 2) |  |  |  |  |  | 36.6 |
